From patent US20230312756A1 (MacroGenics, published 2023)

Target: T1, PD-1 on circulating T cells of patients (human, UniProt Q15116 25-288)
T1 construct: whole, on cells; Probably the same protein as m2
Assay: receptor occupancy by flow cytometry on blood of patients treated with DART-D
Procedure: Receptor Occupancy (RO): One hundred microliter […] volumes of whole blood samples (per time point/per patient) were incubated with saturating concentration of DART-D, followed by lysis and detection of DART-D by biotinylated anti-drug mAb/Strep-PE in “DART-D-spiked” and control samples. After subtraction of background fluorescence (Step-PE only), RO values were calculated as a fraction of maximal binding capacity: RO=(untreated MFI(PE)−background MFI(PE))/(treated MFI(PE)−background MFI(PE)).

T1 sequence (Q15116 25-288): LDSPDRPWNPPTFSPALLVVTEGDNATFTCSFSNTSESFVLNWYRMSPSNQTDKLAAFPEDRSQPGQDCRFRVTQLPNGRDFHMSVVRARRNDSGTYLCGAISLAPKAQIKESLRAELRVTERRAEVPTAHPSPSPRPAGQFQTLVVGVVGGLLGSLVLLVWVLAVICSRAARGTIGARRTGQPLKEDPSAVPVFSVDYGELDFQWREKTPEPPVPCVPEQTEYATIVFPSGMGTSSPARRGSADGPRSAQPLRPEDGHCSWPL

binding result: binds
B1: DART-D (bispecific antibody, human IgG4 S228P)
chain 1: EIVLTQSPATLSLSPGERATLSCRASESVDNYGMSFMNWFQQKPGQPPKLLIHAASNQGSGVPSRFSGSGSGTDFTLTISSLEPEDFAVYFCQQSKEVPYTFGGGTKVEIKGGGSGGGGQVQLVESGGGVVQPGRSLRLSCAASGFTFSSYTMHWVRQAPGKGLEWVTFISYDGSNKHYADSVKGRFTVSRDNSKNTLYLQMNSLRAEDTAIYYCARTGWLGPFDYWGQGTLVTVSSGGCGGGEVAACEKEVAALEKEVAALEKEVAALEKESKYGPPCPPCPAPEFLGGPSVFLFPPKPKDTLYITREPEVTCVVVDVSQEDPEVQFNWYVDGVEVHNAKTKPREEQFNSTYRVVSVLTVLHQDWLNGKEYKCKVSNKGLPSSIEKTISKAKGQPREPQVYTLPPSQEEMTKNQVSLTCLVKGFYPSDIAVEWESNGQPENNYKTTPPVLDSDGSFFLYSRLTVDKSRWQEGNVFSCSVMHEALHNHYTQKSLSLSLG
chain 2: not shown
notes: Tetravalent (2x2) four-chain Fc-bearing diabody, two sites for PD-1 and two for CTLA-4; also called MGD019; PD-1×CTLA-4 bispecific molecule
